Measurements as given in patent US20160046680A1, “RADIOTRACER IMAGING USING SODIUM IODIDE SYMPORTER POLYPEPTIDES” (MAYO FOUNDATION FOR MEDICAL EDUCATION AND RESEARCH, priority 2013, published 2016).
Numbering of substitutions follows the chain as printed. In names and notes the source's numbering stands. Entries after “also recorded” stand apart in the source; their conditions may differ.

Legend:
[1] = system: endogenous NIS expressing organs (thyroid and stomach) and heterologous NIS expressing tumor cells; assay: Dual isotope SPECT/CT imaging of nude mice with BXPC-3-hNIS tumors; settings: four hours after i.p. administration of 250 μCi each
Experimental: FIG. 6. SPECT/CT dual isotope imaging of nude mice implanted with SQ BXPX-3-hNIS tumors. Animals were injected i.p with 250 μCi ^125I and 250 μCi ^99mTc and imaged four hours later. Images were processed using Vivo Quant software. The scale was adjusted manually to get minimal yellow in the tissues.
The stomach and thyroid signals were subtract from the SPECT dataset (FIG. 5). In this experiment, nude female mice (5-week of age) were injected with 3×10^6 BXPC-3-hNIS cells. When tumors reached a diameter of 1 cm, mice were injected I.P. with ^125I sodium iodide (250 μCi) and/or ^99mTc-pertechneate (250 μCi). Four hours post isotope administration, SPECT/CT data were acquired with U-SPECT-II (MiLabs). […] Radioiodide thyroid signal subtraction was performed by normalizing the ^125I SPECT data to thyroid tissue on the ^99mTc SPECT data using the image arithmetic tools available in PMOD image fusion software. This was performed in three steps by (1) calculating the normalization factor (i.e., the inverse ratio between the maximum voxel value corresponding to the thyroid tissue on the ^125I SPECT and the maximum voxel value corresponding to the thyroid tissue on the ^99mTc SPECT data set), (2) multiplying each voxel in the ^125I SPECT dataset by this normalization factor, and (3) subtracting the normalized ^125I SPECT dataset from ^99mTc SPECT data set to generate a thyroid subtraction SPECT dataset (FIG. 5C). Similarly, ^99mTc stomach signal subtraction was performed by (1) calculating the normalization factor which in this case is the inverse ratio of the maximum voxel value corresponding to the stomach tissue on the ^99mTc SPECT to the maximum voxel value corresponding to the stomach tissue in the ^125I SPECT data set, (2) multiplying each voxel in the ^99mTc SPECT dataset by this normalization factor, and (3) subtracting the normalized ^99mTc SPECT dataset from ^125I SPECT data set to generate a stomach subtraction SPECT dataset (FIG. 5B).

[2] = system: stomach signal from NIS polypeptide-mediated uptake of radioisotopes; settings: mouse fed by gavage, then imaged; NIS transduced liver
From the text: FIG. 2B is a photograph of the same mouse fed oral contrast agent.

[3] = system: NIS expressing cells; settings: cited from earlier work
[4] = system: Mel624 cells; assay: Radiotracer uptake assay in Mel624 cells stably expressing NIS polypeptides; type: cell-based; settings: for Uptake of pertechnetate (Technetium-99m) / Uptake of radioiodide (Iodine-125): Mel624 cells expressing the NIS polypeptide, 1 hour at 37° C., +/- 300 μM KClO4
Experimental: Mel624 cells stably expressing a wild-type human NIS polypeptide (Mel-NIS) or one of two mutant NIS polypeptides (Mel-NIS-93E or Mel-NIS-93Q) were plated in 96-well plates at a density that would lead them to confluency on the day of the uptake assay. 1×Hank's balanced salt solution with calcium, magnesium (HBSS) (Cellgro) and 1 mM HEPES was adjusted to pH 7.3 using KOH (HBBS-HEPES) on the day of the assay. Culture medium was removed from the cells, and 150 μL of HBSS-HEPES+/−300 μM KClO4 was added to the wells. The cells were incubated for 10 minutes at room temperature prior to the addition of radiotracer. Radiotracers, ^125I and ^99mTc, were diluted in HBSS-HEPES to about 70,000 to 100,000 CPM/25 μL (CPM, counts per minute). 25 μL of radiotracer was added to the cells in HBSS-HEPES+/−KClO4, and the cells were incubated at 37° C. for 1 hour. The cells were then washed twice with cold HBSS-HEPES buffer and lysed to release the intracellular radiotracer by adding 200 μL 1M NaOH. Lysates were transferred to strip tubes and quantified using a gamma counter.

[5] = system: Hela-YFP-IS cells; assay: Non-radioactive YFP-H148Q/I152L in vitro uptake assay; type: cell-based
From the text: FIG. 11 contains graphs plotting the relative fluorescence Hela-YFP-IS cells expressing no NIS (i) or the indicated mutant NIS (ii-viii) after treatment with I^−, ReO4^−, BF4^−, and ClO4^−. These graphs show the concentration dependence of I^−, ReO4^−, BF4^−, and ClO4^− induced changes in YFP-H148Q/I152L fluorescence in Hela-YFP-IS cells expressing the indicated NIS mutants.
Using an anti-HA-tag-Alexa-Fluor-647 monoclonal antibody, cells expressing the NIS mutants on the cell surface were labeled and quantified using flow cytometry. […] A non-radioactive YFP-H148Q/I152L in vitro uptake assay was used to monitor uptake of NIS substrates: […], […], BF4^−, and ClO4^−. The NIS mutants were co-expressed with YFP-H148Q/I152L, which decreased in fluorescence following an interaction with halides. […] This was particularly so at the lowest substrate concentrations, which are of clinical relevance as radiotracers used for imaging are administered to animals and humans in trace amounts. At 1-5 μM concentrations of substrate, NIS-Q72N transported less iodide but more ClO4^− into the cells.

[6] = 1-5 μM concentrations of substrate, YFP-H148Q/I152L fluorescence

[O]=[99Tc](=[O])(=[O])[O-] [^99mTc, ^99mTc-pertechneate]
Accumulation in BXPC-3-hNIS tumor cells [1]: accumulate both isotopes to similar concentrations
Organ that preferentially accumulates the isotope [1]: stomach preferentially accumulates

[125I-].[Na+] [^125I, ^125I sodium iodide]
Accumulation in BXPC-3-hNIS tumor cells [1]: accumulate both isotopes to similar concentrations
Organ that preferentially accumulates the isotope [1]: thyroid preferentially accumulates

O=S(=O)([O-])[O-].[Ba+2] [barium sulfate]
Isotope signals from the stomach [2]: reduced isotope signals from the stomach

[O-][Cl+3]([O-])([O-])O [perchlorate]
Efficiency of concentration in NIS expressing cells compared to iodide anions (less efficiently) [3]: 10 fold

B1: NIS-93E: mutant human sodium iodide symporter polypeptide, human NIS-93E (SEQ ID NO:1) (protein, listed as Homo sapiens)
chain: MEAVETGERPTFGAWDYGVFALMLLVSTGIGLWVGLARGGQRSAEDFFTGGRRLAALPVGLSLSASFMSAVQVLGVPSEAYRYGLKFLWMCLEQLLNSVLTALLFMPVFYRLGLTSTYEYLEMRFSRAVRLCGTLQYIVATMLYTGIVIYAPALILNQVTGLDIWASLLSTGIICTFYTAVGGMKAVVWTDVFQVVVMLSGFWVVLARGVMLVGGPRQVLTLAQNHSRINLMDFNPDPRSRYTFWTFVVGGTLVWLSMYGVNQAQVQRYVACRTEKQAKLALLINQVGLFLIVSSAACCGIVMFVFYTDCDPLLLGRISAPDQYMPLLVLDIFEDLPGVPGLFLACAYSGTLSTASTSINAMAAVTVEDLIKPRLRSLAPRKLVIISKGLSLIYGSACLTVAALSSLLGGGVLQGSFTVMGVISGPLLGAFILGMFLPACNTPGVLAGLGAGLALSLWVALGATLYPPSEQTMRVLPSSAARCVALSVNASGLLDPALLPANDSSRAPSSGMDASRPALADSFYAISYLYYGALGTLTTVLCGALISCLTGPTKRSTLAPGLLWWDLARQTASVAPKEEVAILDDNLVKGPEELPTGNKKPPGFLPTNEDRLFFLGQKELEGAGSWTPCVGHDGGRDQQETNL
Efficiency of concentrating iodide relative to TcO4 [4]: concentrate iodide with greater efficiency than TcO4
Concentration of Iodine-125 uptake in tumor cells as compared to non-mutated NIS (NIS WT) ([4]; FIGS. 1A and 1B): decrease the concentration of Iodine-125 uptake
Uptake of pertechnetate (Technetium-99m) [4]: minimal or no uptake of pertechnetate; also recorded: not pertechnetate
Uptake of radioiodide (Iodine-125) [4]: can uptake radioiodide; also recorded: capable of up-taking radioiodide
Uptake of pertechnetate (Technetium-99m) ([4]; listed as NIS-G93E): not Technetium-99m
Uptake of radioiodide (Iodine-125) ([4]; listed as NIS-G93E): transport selectively Iodine-125; also recorded: selectively transports Iodine-125

B2: NIS-Q72N: human NIS with Q72 mutated to N, N-terminal HA-tag (protein, UniProt Q92911 1-643, looked up, variant Q72N)
Sodium/iodide cotransporter: B1 chain with Q72N, E93G
modifications: N-terminal HA tag
ClO4- transported into the cells compared to wild-type NIS [5, 6]: more ClO4^−
Iodide transported into the cells compared to wild-type NIS [5, 6]: less iodide
Substrate transport profile compared to wild-type NIS ([5]; I-, ReO4-, BF4-, ClO4-, FIGS. 11 and 12): altered substrate transport profile

B3: wild-type human NIS polypeptide: wild-type human sodium iodide symporter polypeptide (protein, UniProt Q92911 1-643, looked up)
Sodium/iodide cotransporter: B1 chain with E93G
Uptake of pertechnetate (Technetium-99m) [4]: Substantial uptake
Uptake of radioiodide (Iodine-125) [4]: Substantial uptake
